Test results as given in patent publication US20170342144A1 (Sanofi, published 2017).
Numbering of substitutions follows the chain as printed. In names and notes the source's numbering stands. Where two headings read alike, the source gives them in different places.

T1: human TGFβ2 (human, UniProt P61812 303-414)
T1 construct: also called TGFβ2 homodimer
T1 sequence: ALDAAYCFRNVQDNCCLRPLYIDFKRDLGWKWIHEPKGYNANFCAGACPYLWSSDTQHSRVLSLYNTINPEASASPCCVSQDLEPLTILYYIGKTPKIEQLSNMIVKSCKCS

T2: human TGFβ3 (human, UniProt P10600 301-412)
T2 sequence: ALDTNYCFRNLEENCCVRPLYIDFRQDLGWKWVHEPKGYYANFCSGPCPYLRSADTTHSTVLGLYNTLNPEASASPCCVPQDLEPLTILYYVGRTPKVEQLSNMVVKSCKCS

B1: GC1008 (antibody, human IgG4, V domains shown)
VH: QVQLVQSGAEVKKPGSSVKVSCKASGYTFSSNVISWVRQAPGQGLEWMGGVIPIVDIANYAQRFKGRVTITADESTSTTYMELSSLRSEDTAVYYCASTLGLVLDAMDYWGQGTLVTVSS
VL: ETVLTQSPGTLSLSPGERATLSCRASQSLGSSYLAWYQQKPGQAPRLLIYGASSRAPGIPDRFSGSGSGTDFTLTISRLEPEDFAVYYCQQYADSPITFGQGTRLEIK
notes: also called GC1008 antibody; wild-type control
B2: I54R (antibody, V domains shown)
VH: B1 VH with I54R
VL: B1 VL
notes: GC1008 IgG4 variant
B3: V55K (antibody, V domains shown)
VH: B1 VH with V55K
VL: B1 VL
notes: GC1008 IgG4 variant
B4: L104R (antibody, V domains shown)
VH: B1 VH with L104R
VL: B1 VL
notes: GC1008 IgG4 variant
B5: V103R (antibody, V domains shown)
VH: B1 VH with V103R
VL: B1 VL
notes: GC1008 IgG4 variant
B6: I52R (antibody, V domains shown)
VH: B1 VH with I52R
VL: B1 VL
notes: GC1008 IgG4 variant
B7: L104K (antibody, V domains shown)
VH: B1 VH with L104K
VL: B1 VL
notes: GC1008 IgG4 variant
B8: I54N (antibody, V domains shown)
VH: B1 VH with I54N
VL: B1 VL
notes: GC1008 IgG4 variant
B9: I52S (antibody, V domains shown)
VH: B1 VH with I52S
VL: B1 VL
notes: GC1008 IgG4 variant
B10: I52W (antibody, V domains shown)
VH: B1 VH with I52W
VL: B1 VL
notes: GC1008 IgG4 variant
B11: I52Q (antibody, V domains shown)
VH: B1 VH with I52Q
VL: B1 VL
notes: GC1008 IgG4 variant
B12: A93R(LC) (antibody, V domains shown)
VH: B1 VH
VL: B1 VL with A93R
notes: GC1008 IgG4 variant, light chain substitution

Experiments:
human TGFβ1 [1] = molecular target: T3, human TGFβ1 (human, UniProt P01137 279-390); assay: cell-based or functional assay
T3 construct: also called TGFβ1 homodimer

human TGFβ1 [2] = molecular target: T3, human TGFβ1; assay: SPR (Biacore 3000), TGFβ1 amine-coupled to the chip, GC1008 IgG as analyte, 1:1 model, average of more than 25 assays
Method: (§1) Additionally, the TGFβ isoform binding affinity of the GC1008 antibody was measured using a Biacore® 3000 (GE Healthcare) instrument. TGFβ1 and TGFβ2, produced in-house, were diluted to ˜1 μg/mL in 10 mM acetate, pH 4.5, and TGFβ3 (R&D Systems) was diluted to ˜2 μg/mL in 10 mM acetate, pH 4.0. Flowcells 2, 3, and 4 of a CMS sensor chip were covalently immobilized with 50 to 100 RU of TGFβ1, TGFβ2, and TGFβ3, respectively, using the standard amine coupling kit from GE Healthcare. Flowcell 1 was used as a control surface. […] The surface was regenerated with two 30 sec injections of 40 mM HCl at 75 μL/min. The sensorgrams were fit using a 1:1 binding model after subtraction of buffer and control flowcell refractive index changes with the BIA Evaluation Software Kit (GE Healthcare). The KD's shown in TABLE 6 are an average of more than 25 independent assays.

human TGFβ2 [3] = molecular target: T1, human TGFβ2; assay: SPR (Biacore 3000), TGFβ2 amine-coupled to the chip, GC1008 IgG as analyte, 1:1 model, average of more than 25 assays
Method: as §1

human TGFβ3 [4] = molecular target: T2, human TGFβ3; assay: SPR (Biacore 3000), TGFβ3 amine-coupled to the chip, GC1008 IgG as analyte, 1:1 model, average of more than 25 assays
Method: as §1

human TGFβ1 [5] = molecular target: T3, human TGFβ1; assay: Biacore off-rate vs wt GC1008
How it was run: (§2)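 Single amino acid substitution variants of the GC1008 antibody were made by site-directed mutagenesis, expressed in Expi293F cells, and purified from 1 mL conditioned media by Protein A tips after 4 days. Duplicate Biacore 3000 runs at 50 nM used 100 RU TGFβ immobilized surfaces, and each variant's off-rate (kd) was divided by the wild-type kd.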

human TGFβ2 [6] = molecular target: T1, human TGFβ2; assay: Biacore off-rate vs wt GC1008
How it was run: as §2

human TGFβ3 [7] = molecular target: T2, human TGFβ3; assay: Biacore off-rate vs wt GC1008
How it was run: as §2

human TGFβ1 [8] = molecular target: T3, human TGFβ1; assay: Biacore off-rate vs wt GC1008, 50 nM
How it was run: (§3)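 Surface plasmon resonance on a Biacore 3000 measured how fast purified antibody variants dissociated from TGFβ isoforms immobilized at about 100 RU. Variants carried single heavy- or light-chain substitutions and were produced by transient Expi293F transfection with Protein A cleanup. Samples at 50 nM were tested in duplicate, and each variant kd was divided by the wild-type control kd to give fold change.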

human TGFβ2 [9] = molecular target: T1, human TGFβ2; assay: Biacore off-rate vs wt GC1008, 50 nM
How it was run: as §3

human TGFβ3 [10] = molecular target: T2, human TGFβ3; assay: Biacore off-rate vs wt GC1008, 50 nM
How it was run: as §3

human TGFβ1 [11] = molecular target: T3, human TGFβ1; assay: Biacore, top 2 concentrations only (90, 30 nM), 1:1 global fit, vs wt GC1008
Method: (§4) In FIG. 6C, seventeen mutants were selected and scaled up to produce sufficient amount of purified protein for KD (equilibrium constant=kd/ka) analysis by Biacore. Multiple concentrations (90, 30, 10 and 3.33 nM) were used in duplicate on the 150 RU level TGFβ1, 2, and 3 immobilized surfaces. KD was calculated using global curve fitting analysis for a 1-to-1 Langmuir binding model. The experimental data from all four concentrations were used for calculation except for I54N and I54R mutants, where only the top 2 concentrations were used. The fold changes in KD were compared to the fold changes in kd (off rate) presented in FIG. 6B, and a heat map was generated for visualization. Similar fold changes were observed from the two data sets, confirming the validity of using kd as a parameter for screening of 155 single mutants as shown in FIG. 6B.

human TGFβ2 [12] = molecular target: T1, human TGFβ2; assay: as above
Method: as §4

human TGFβ3 [13] = molecular target: T2, human TGFβ3; assay: as above
Method: as §4

human TGFβ1 [14] = molecular target: T3, human TGFβ1; assay: Biacore, immobilised TGFβ
human TGFβ2 [15] = molecular target: T1, human TGFβ2; assay: Biacore, immobilised TGFβ
human TGFβ3 [16] = molecular target: T2, human TGFβ3; assay: Biacore, immobilised TGFβ
human TGFβ1 [17] = molecular target: T3, human TGFβ1; assay: Biacore, immobilised TGFβ; remark: listed apart in the source
human TGFβ2 [18] = molecular target: T1, human TGFβ2; assay: Biacore, immobilised TGFβ; remark: listed apart in the source
human TGFβ3 [19] = molecular target: T2, human TGFβ3; assay: Biacore, immobilised TGFβ; remark: listed apart in the source

T3 sequence (P01137 279-390 limits assumed): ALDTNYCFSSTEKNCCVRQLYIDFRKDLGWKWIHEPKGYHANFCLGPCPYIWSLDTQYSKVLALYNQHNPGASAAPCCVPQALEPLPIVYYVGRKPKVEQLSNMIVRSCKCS

| Molecule | binding result (human TGFβ1 [14]) | binding result (human TGFβ2 [15]) | binding result (human TGFβ3 [16]) | binding result (human TGFβ1 [17]) | binding result (human TGFβ2 [18]) | binding result (human TGFβ3 [19]) | further results |
| --- | --- | --- | --- | --- | --- | --- | --- |
| 1D11.16 (antibody) | – | – | – | – | – | – | % neutralization in MLEC proliferation assay at 91 pM antibody (human TGFβ1 [1]): 12% |
| B1 | – | – | – | – | – | – | Kd (human TGFβ1 [2]): 1.7 nM; Kd (human TGFβ2 [3]): 3 nM; Kd (human TGFβ3 [4]): 2 nM |
| B2 | – | – | – | – | – | – | kd mutant/kd wt (human TGFβ1 [5]): 7.6; kd mutant/kd wt (human TGFβ2 [6]): 5.2; kd mutant/kd wt (human TGFβ3 [7]): 4.8; kd var/kd wt (human TGFβ1 [8]): 7.6; kd var/kd wt (human TGFβ2 [9]): 5.2; kd var/kd wt (human TGFβ3 [10]): 4.8; KD mutant/KD wt (human TGFβ1 [11]): 11; KD mutant/KD wt (human TGFβ2 [12]): 5.3; KD mutant/KD wt (human TGFβ3 [13]): 11.4 |
| B3 | no binding (tested: 50 nM) | no binding (tested: 50 nM) | no binding (tested: 50 nM) | – | – | – | – |
| B4 | – | – | – | no binding (tested: 50 nM) | no binding (tested: 50 nM) | no binding (tested: 50 nM) | – |
| B5 | – | – | – | no binding (tested: 50 nM) | no binding (tested: 50 nM) | no binding (tested: 50 nM) | – |
| B6 | no binding (tested: 50 nM) | no binding (tested: 50 nM) | no binding (tested: 50 nM) | – | – | – | – |
| B7 | – | – | – | no binding (tested: 50 nM) | no binding (tested: 50 nM) | no binding (tested: 50 nM) | – |
| B8 | – | – | – | – | – | – | kd mutant/kd wt (human TGFβ1 [5]): 4.9; kd mutant/kd wt (human TGFβ2 [6]): 2.4; kd mutant/kd wt (human TGFβ3 [7]): 4.3; kd var/kd wt (human TGFβ1 [8]): 4.9; kd var/kd wt (human TGFβ2 [9]): 2.4; kd var/kd wt (human TGFβ3 [10]): 4.3; KD mutant/KD wt (human TGFβ1 [11]): 7; KD mutant/KD wt (human TGFβ2 [12]): 4.5; KD mutant/KD wt (human TGFβ3 [13]): 13.1 |
| B9 | no binding (tested: 50 nM) | no binding (tested: 50 nM) | no binding (tested: 50 nM) | – | – | – | – |
| B10 | no binding (tested: 50 nM) | no binding (tested: 50 nM) | no binding (tested: 50 nM) | – | – | – | – |
| B11 | no binding (tested: 50 nM) | no binding (tested: 50 nM) | no binding (tested: 50 nM) | – | – | – | – |
| B12 | – | – | – | no binding (tested: 50 nM) | no binding (tested: 50 nM) | no binding (tested: 50 nM) | – |
